Data reported in publication PMC4514642, “^99mTc-3P-RGD2 molecular imaging targeting integrin αvβ3 in head and neck squamous cancer xenograft” (Journal of Radioanalytical and Nuclear Chemistry, 2015).

What was measured:
HEP-2 tumor = assay: Biodistribution in HEP-2 tumor bearing mice; type: in vivo, BALB/c nude mice; conditions: stated for HEP-2 and CNE-1 tumor models together
Method: (§1) Female BALB/c nude mice (4–5 weeks of age, 15–20 g of weight) were purchased from the Department of Animal Experiment, Chinese Academy of Medical Sciences. The mice were subcutaneously implanted with 3 × 10^6 the HEP-2 cells (6 mice) or 2 × 10^5 the CNE-1 cells (6 mice) in 0.1 mL of saline into the right upper shoulder flanks. All procedures were performed in a laminar flow cabinet using the aseptic technique. Fifteen to nineteen days after inoculation, the tumor size was 1–1.5 cm, the tumor-bearing mice were used for biodistribution and imaging studies. Capital Medical University Animal Care and Use Committee approved the animal experiments.
(§2) The biodistribution of ^99mTc-3P-RGD2 in HEP-2 tumor bearing mice and CNE-1 tumor bearing mice was evaluated in groups of 3 mice per time point at 60 min and 120 min after injection of approximately 0.55–0.74 MBq of ^99mTc-3P-RGD2 in 0.1 mL saline via tail vein. From all mice, tumors and tissue samples (blood, heart, liver, spleen, kidney, lung, intestine and muscle) were harvested and weighed. Subsequently, radioactivity uptake was determined in γ-counter. Activity concentrations in the tissues were calculated as percentage of the injected dose per gram of tissue (%ID/g). To correct for radioactive decay, injection standards were counted simultaneously.

[1] = Biodistribution in HEP-2 tumor bearing mice; type: in vivo, BALB/c nude mice; conditions: female, BALB/c nude, mouse, iv, total radioactivity, HEP-2 model, mean ± SD
Method: as §1, §2

[2] = In vitro stability in serum by radio-HPLC; type: in vitro ADME; conditions: fetal calf serum (result text); newborn calf serum / 2 mL human serum in method; 37 MBq, 37 °C, incubation 6 h (analysed at 0 min, 3, 4, 6 h); radio-HPLC radiochemical purity
Method: The stability of ^99mTc-3P-RGD2 in newborn calf serum was determined after incubating the radiolabeled compound (37 MBq) in 2 mL […] at 37 °C. Every 20 μL mixture was injected directly into the radio-HPLC to analyze the radiochemistry purity, which was followed by radiolabeling efficiency analysis at 0 min, 3, 4, and 6 h.
Fig. 2 Radio-HPLC analysis of ^99mTc-3P-RGD2 stability. ^99mTc-3P-RGD2 incubated in new-born calf serum for 0 min (a), 3 h (b), 4 h (c), 6 h (d) after labeling

[3] = Biodistribution in CNE-1 tumor bearing mice; type: in vivo; conditions: female, BALB/c nude, mouse, iv, total radioactivity, CNE-1 model, mean ± SD
Method: as §1, §2

**Q.** For `N=C(N)NCCC[C@@H]1NC(=O)[C@H](CCCCNC(=O)CCOCCOCCOCCOCCNC(=O)CC[C@H](NC(=O)CCOCCOCCOCCOCCNC(=O)c2ccc(NN)nc2)C(=O)NCCOCCOCCOCCOCCC(=O)NCCCC[C@@H]2NC(=O)[C@@H](Cc3ccccc3)NC(=O)[C@H](CC(=O)O)NC(=O)CNC(=O)[C@H](CCCNC(=N)N)NC2=O)NC(=O)[C@@H](Cc2ccccc2)NC(=O)[C@H](CC(=O)O)NC(=O)CNC1=O` [^99mTc-3P-RGD2, [^99mTc(HYNIC-3P-RGD2)(tricine)(TPPTS)], metal not drawn], which “uptake in blood and muscle” value (HEP-2 tumor; 60 min p.i.) is on record?
**A.** low

**Q.** And the route of excretion (HEP-2 tumor)?
**A.** excreted predominantly via the renal route

**Q.** What about the kidney uptake (HEP-2 tumor; selected organs) of the same molecule?
**A.** highest in the selected organs

**Q.** And the tissue to tissue ratio at 2 h ([1]; HEP-2 tumor / blood, 120 min p.i., read-out: tumor/blood ratio)?
**A.** 6.37 ± 0.68

**Q.** What about the tissue to tissue ratio at 2 h ([1]; HEP-2 tumor / muscle, 120 min p.i., read-out: tumor/muscle ratio) of the same molecule?
**A.** 4.44 ± 0.42

**Q.** And the tissue uptake at 1 h ([1]; HEP-2 tumor, 60 min p.i., tail vein 0.55–0.74 MBq, γ-counter, %ID/g, 3 mice per time point)?
**A.** 6.25 ± 0.22 %ID/g

**Q.** And the tissue uptake at 2 h ([1]; HEP-2 tumor, 120 min p.i., tail vein 0.55–0.74 MBq, γ-counter, %ID/g, 3 mice per time point)?
**A.** 4.56 ± 0.67 %ID/g

**Q.** And the “stability in serum (radio-HPLC)” value [2]?
**A.** stable

**Q.** And the tissue to tissue ratio at 2 h ([3]; CNE-1 tumor / blood, 120 min p.i., read-out: tumor/blood ratio)?
**A.** 2.49 ± 0.09

**Q.** And the tissue to tissue ratio at 2 h ([3]; CNE-1 tumor / muscle, 120 min p.i., read-out: tumor/muscle ratio)?
**A.** 1.86 ± 0.07

**Q.** What about the tissue uptake at 1 h ([3]; CNE-1 tumor, 60 min p.i., tail vein 0.55–0.74 MBq, γ-counter, %ID/g, 3 mice per time point) of the same molecule?
**A.** 2.74 ± 0.51 %ID/g

**Q.** What about the tissue uptake at 2 h ([3]; CNE-1 tumor, 120 min p.i., tail vein 0.55–0.74 MBq, γ-counter, %ID/g, 3 mice per time point) of the same molecule?
**A.** 1.69 ± 0.18 %ID/g
